Test results as given in the supplement of paper PMC9732359.
± gives the uncertainty stated by the source.

Assay: protein stability index of a GFP-peptide fusion (yeast GPS) (PSI 1-4); higher = more stable; sorted into four equal gates, so the index is relative within each strain
In short: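 Each library plasmid carries Cherry plus GFP with a tiled 17-residue yeast protein peptide fused downstream, and the pooled library was carried in yeast. Mid-log cultures in leucine-free medium were sorted into four equal gates by GFP/Cherry ratio. Reads from Illumina sequencing of PCR-amplified plasmids from each gate were assigned to strains by barcodes. Per peptide, the protein stability index was computed as the summed products of gate read frequency and gate number.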

Sequence | protein stability index (doa10∆) | protein stability index (san1∆) | protein stability index (ubr1∆) | protein stability index (pdr5∆)
GGSFGNREEFINKLVKS [RPL7A] | 2.98 ± 0.22 | 3.18 ± 0.17 | 2.93 ± 0.077 | –
TTRVGGGGAARRQAVDV [RPS5] | 1.61 ± 0.26 | 1.73 ± 0.28 | 1.82 ± 0.17 | 1.63 ± 0.12
QRETYDSNESDDDVTPS [YLR335W/NUP2] | 1.99 ± 0.1 | 2.37 ± 0.15 | 2.65 ± 0.18 | 2.43 ± 0.2
GTPLQNNLHELWALLNF [ISW2] | 2.76 ± 0.045 | 2.35 ± 0.05 | 2.76 ± 0.041 | 2.55 ± 0.051
KWDITTRNSNNLAIVEL [BRR2] | 3.16 ± 0.071 | 3.21 ± 0.051 | 3.54 ± 0.064 | 2.83 ± 0.059
RVKDIHLRKLLDGELDF [RET1] | 2.87 ± 0.06 | 3.03 ± 0.066 | 3.02 ± 0.041 | 2.93 ± 0.062
VRTRGGNKKYRALRIET [RPS8A] | 2.71 ± 0.032 | 2.71 ± 0.031 | 2.853 ± 0.022 | 2.52 ± 0.03
LAHYVVTAKLLGFTPGE [FAS1] | 1.6 ± 0.13 | – | 1.48 ± 0.12 | 1.28 ± 0.082
FKDRFKDEPVQNDILQE [FAS2] | 3.35 ± 0.13 | 3.23 ± 0.072 | 3.46 ± 0.092 | 3.03 ± 0.15
RLTAKRLIEHDPVEGNL [SRP14] | 2 ± 0.066 | 1.93 ± 0.1 | 2.16 ± 0.045 | 2.29 ± 0.052
NFKSYRGVTKVGFGESN [SMC1] | 3.03 ± 0.096 | 2.53 ± 0.15 | 2.72 ± 0.11 | 2.89 ± 0.13
LRLKLFLYEILSSLKSF [SRB8] | 1.53 ± 0.063 | 1.81 ± 0.082 | 2.11 ± 0.085 | 2.29 ± 0.082
TMIKKTTLVTRREELQQ [SMC3] | 2.88 ± 0.13 | 3.1 ± 0.16 | 2.55 ± 0.18 | 2.94 ± 0.11
FSRRFDCRDVYCHEKEL [CSN9] | – | – | 2.99 ± 0.19 | –
RRYDRKQSGFGGQTKPV [RPL42A] | 3.08 ± 0.084 | 2.88 ± 0.056 | 3.148 ± 0.029 | 3.03 ± 0.066
ANLMLVMLRLLLVVIFK [SRB4] | 1.49 ± 0.045 | 1.24 ± 0.088 | 1.46 ± 0.034 | 1.51 ± 0.047
IYAKYGAKGSTLIVVPF [FAS2] | 2.4 ± 0.072 | 2.34 ± 0.11 | 2.13 ± 0.05 | 2.72 ± 0.073
DDDDYGDEEDPNEEAAF [RPC31] | – | – | – | 3.38 ± 0.28
PEREVLVRELYQWRDLI [RRP6] | 2.91 ± 0.057 | 2.67 ± 0.066 | 2.58 ± 0.049 | 2.78 ± 0.07
FVDDMLRDYRFEDATRE [SNF5] | 2.92 ± 0.096 | 3.19 ± 0.082 | 3.35 ± 0.046 | 3 ± 0.095
VDNDNWVYKTKGDGMTS [RPN1] | 3.12 ± 0.1 | 3 ± 0.071 | 3.1 ± 0.11 | 3.27 ± 0.065
AQAQAQAQAQAQAAQAA [GAL11] | 2.91 ± 0.055 | 3.258 ± 0.023 | 3.15 ± 0.057 | 3.27 ± 0.045
ERLTNSLMMNGRNNGKK [RPS5] | 2.98 ± 0.099 | 2.54 ± 0.071 | 2.62 ± 0.09 | 3.02 ± 0.088
PEIDNLDDLVVLKKKNI [RRP6] | 2.37 ± 0.067 | 2.59 ± 0.089 | 2.79 ± 0.066 | 2.15 ± 0.052
FSEEKAEEFDFNVPVVS [YAR002W/NUP60] | 2.48 ± 0.18 | 1.3 ± 0.13 | 1.15 ± 0.12 | 1.34 ± 0.16
RILKNKAEYLKNCPITQ [RPC40] | 2.96 ± 0.052 | 3.02 ± 0.04 | 2.83 ± 0.037 | 3.12 ± 0.048
QSNINTNAPLRTLNIQP [YIL149C/MLP2] | 2.61 ± 0.11 | 1.99 ± 0.086 | 2.19 ± 0.076 | 2.36 ± 0.09
EFIYLTKVLQFAAKQRQ [SNF2] | 1.33 ± 0.19 | 1.39 ± 0.15 | – | 1.28 ± 0.15

Sequence | protein stability index (doa10∆) | protein stability index (san1∆) | protein stability index (ubr1∆) | protein stability index (pdr5∆)
ICMESLFLEPSWSSSAA [PCI8] | – | 2.63 ± 0.15 | 3.17 ± 0.11 | 2.86 ± 0.12
LGLKFDDLIAEENPIMQ [QCR7] | 2.46 ± 0.28 | 2.32 ± 0.16 | 1.81 ± 0.079 | 2.21 ± 0.14
REPDFWVIRKQRRTNNS [MED6] | 3.51 ± 0.15 | 2.97 ± 0.097 | 2.93 ± 0.096 | 3.29 ± 0.09
AKTLTYPEVVTPYNIDR [RPO21] | 2.17 ± 0.074 | 1.94 ± 0.073 | 2.05 ± 0.074 | 2.35 ± 0.078
DYNKKQDRIQDVKLVLA [MED1] | 2.69 ± 0.078 | 2.28 ± 0.11 | 2.28 ± 0.072 | 2.83 ± 0.074
ESRAQNVFGQDNEDSDN [SWI3] | 3.24 ± 0.1 | 3.33 ± 0.048 | 3.2 ± 0.052 | 3.16 ± 0.075
QAQQAQQAQARLQQGRR [SNF2] | 3.02 ± 0.08 | 2.88 ± 0.048 | 3.02 ± 0.061 | 3.11 ± 0.092
TNVEDPLAKKQTVRLIK [SIR2] | 2.82 ± 0.077 | 2.77 ± 0.056 | 2.96 ± 0.06 | 3.08 ± 0.067
NELMRWPIVQKTYEPVL [RPN5] | 2.25 ± 0.06 | 2.24 ± 0.075 | 1.83 ± 0.037 | 2.39 ± 0.057
SRDKTIKVWTIKGQCLA [ASC1] | 1.63 ± 0.078 | 2.12 ± 0.11 | 1.83 ± 0.06 | 2.04 ± 0.074
NNTNNNNTNTGASGVDD [SWI1] | 2.75 ± 0.073 | 3.05 ± 0.072 | 3.3 ± 0.048 | 2.95 ± 0.065
VSSTIPRETIPFLHLRK [FAS2] | 2.93 ± 0.27 | 2.79 ± 0.16 | 2.6 ± 0.15 | 2.35 ± 0.13
QKLPQYIIQGSNTNDNI [RGR1] | 3.14 ± 0.1 | 2.48 ± 0.18 | 3.25 ± 0.091 | 3.09 ± 0.098
GLGMISASHILIPASDL [PRP8] | 2.06 ± 0.05 | 1.75 ± 0.06 | 2.19 ± 0.036 | 2.41 ± 0.043
GVVVLRDREPKEPVALI [RPN2] | 3.5 ± 0.1 | 3.45 ± 0.076 | 3.41 ± 0.29 | 3.21 ± 0.11
SLTSKRLISQSLLASKS [RIP1] | – | – | 1.36 ± 0.21 | –
EEITCALDYLIPPPMPK [MED7] | 1.86 ± 0.083 | 2.06 ± 0.16 | 2.28 ± 0.071 | 2.73 ± 0.21
VEELPTFHDYDMVKLDI [RRP42] | 2.51 ± 0.055 | 2.87 ± 0.045 | 3.13 ± 0.033 | 2.75 ± 0.063
KSAMDTFKSVSKYGMLL [POP3] | 2.41 ± 0.063 | 2.7 ± 0.07 | 2.45 ± 0.055 | 2.87 ± 0.056
EDFMDIPKPRTAGKTSV [SNF2] | 2.67 ± 0.14 | 3.2 ± 0.18 | 3.08 ± 0.06 | 3.24 ± 0.085
EWRKSAIANTLLYLRLK [PRP8] | 1.85 ± 0.063 | 1.41 ± 0.095 | 1.37 ± 0.047 | 1.54 ± 0.051
KDSTAGKKVFETQYFWK [YJR042W/NUP85] | – | 3.03 ± 0.21 | – | –
QRRVLLSAPLSKELRAQ [RPL26A] | 2.65 ± 0.073 | 2.62 ± 0.08 | 2.39 ± 0.063 | 2.43 ± 0.078
PISISNAPTFNPKYDTS [YAR002W/NUP60] | 3.03 ± 0.076 | 2.71 ± 0.059 | 3.07 ± 0.06 | 3.08 ± 0.068
IQLLDENVGTRLLPINV [MED11] | 3.09 ± 0.16 | 3.14 ± 0.066 | 3.16 ± 0.063 | 2.86 ± 0.1
NVLNRIQELEDQRDELL [ITC1] | 3.39 ± 0.12 | 3.5 ± 0.077 | 3.56 ± 0.12 | 3.15 ± 0.085
FEQTAFSRHAQQQTSTF [SIR4] | 1.94 ± 0.07 | 1.79 ± 0.093 | 2.01 ± 0.055 | 2.32 ± 0.092
